Laboratory results: paper PMC8639739, “Catalytic flexibility of rice glycosyltransferase OsUGT91C1 for the production of palatable steviol glycosides” (Nature Communications, 2021)

T1: OsUGT91C1 (Oryza sativa, UniProt Q0DPB7)
T1 construct: gene Os03g0702000; synthetic coding region in pET28b, His-tagged, E. coli BL21(DE3); HisTrap and gel filtration; tag removal not mentioned; monomer
T1 sequence (Q0DPB7 1-462): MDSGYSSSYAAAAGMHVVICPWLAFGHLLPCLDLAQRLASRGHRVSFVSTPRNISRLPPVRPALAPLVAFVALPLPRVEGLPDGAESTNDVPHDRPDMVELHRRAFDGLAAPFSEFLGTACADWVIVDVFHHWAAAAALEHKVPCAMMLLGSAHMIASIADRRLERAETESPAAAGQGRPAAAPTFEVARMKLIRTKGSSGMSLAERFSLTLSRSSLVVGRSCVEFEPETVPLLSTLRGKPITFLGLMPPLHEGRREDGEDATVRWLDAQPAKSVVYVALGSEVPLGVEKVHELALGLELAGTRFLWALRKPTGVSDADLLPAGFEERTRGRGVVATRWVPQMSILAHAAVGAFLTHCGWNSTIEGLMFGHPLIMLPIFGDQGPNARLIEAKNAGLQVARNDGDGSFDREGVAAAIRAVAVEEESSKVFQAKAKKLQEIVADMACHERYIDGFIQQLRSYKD


Experiments:
OsUGT91C1 = target: T1, OsUGT91C1; assay: X-ray crystal structure; format: binding; conditions: complexes with Reb E, ST or STB; UDP-glucose site
purified protein = substrate: C=C1C[C@@]23CC[C@H]4[C@@](C)(CCC[C@@]4(C)C(=O)O[C@@H]4O[C@H](CO)[C@@H](O)[C@H](O)[C@H]4O)[C@@H]2CC[C@]1(O[C@@H]1O[C@H](CO)[C@@H](O)[C@H](O[C@@H]2O[C@H](CO)[C@@H](O)[C@H](O)[C@H]2O)[C@H]1O[C@@H]1O[C@H](CO)[C@@H](O)[C@H](O)[C@H]1O)C3; assay: purified protein; conditions: 200 μM UDP-glucose; beta(1-2) glucosylation at R2
[1] = substrate: C=C1C[C@@]23CC[C@H]4[C@@](C)(CCC[C@@]4(C)C(=O)O[C@@H]4O[C@H](CO)[C@@H](O)[C@H](O)[C@H]4O)[C@@H]2CC[C@]1(O[C@@H]1O[C@H](CO)[C@@H](O)[C@H](O)[C@H]1O)C3; assay: UDP-Glo glycosyltransferase assay, Michaelis-Menten fit; format: biochemical, Oryza sativa; conditions: 200 μM UDP-glucose; combined beta(1-2) glucosylation at R1 and R2
[2] = substrate: C=C1C[C@@]23CC[C@H]4[C@@](C)(CCC[C@@]4(C)C(=O)O)[C@@H]2CC[C@]1(O[C@@H]1O[C@H](CO)[C@@H](O)[C@H](O)[C@H]1O)C3; assay: as above; format: biochemical, Oryza sativa; conditions: 200 μM UDP-glucose; beta(1-2) glucosylation at R1
[3] = substrate: C=C1C[C@@]23CC[C@H]4[C@@](C)(CCC[C@@]4(C)C(=O)O)[C@@H]2CC[C@]1(O[C@@H]1O[C@H](CO)[C@@H](O)[C@H](O)[C@H]1O[C@@H]1O[C@H](CO)[C@@H](O)[C@H](O)[C@H]1O)C3; assay: as above; format: biochemical, Oryza sativa; conditions: 200 μM UDP-glucose; beta(1-6) glucosylation at R1; crystal structure with UDP, R1 end at active site

Molecule | X-ray crystal structure (OsUGT91C1) | Km (purified protein) | kcat (purified protein) | kcat/Km (purified protein) | Km [1] | kcat [1] | kcat/Km [1] | Km [2] | kcat [2] | kcat/Km [2] | Km [3] | kcat [3] | kcat/Km [3]
O=c1ccn([C@@H]2O[C@H](COP(=O)(O)OP(=O)(O)O)[C@@H](O)[C@H]2O)c(=O)[nH]1 [UDP] | UDP is bound identically in all four complexes |  |  |  |  |  |  |  |  |  |  |  | 
OsUGT91C1 (Oryza sativa Japonica Group; F208M) (protein, synthetic coding region in pET28b, His-tagged, E. coli BL21(DE3); HisTrap and gel filtration; tag removal not mentioned; monomer) MDSGYSSSYAAAAGMHVVICPWLAFGHLLPCLDLAQRLASRGHRVSFVSTPRNISRLPPVRPALAPLVAFVALPLPRVEGLPDGAESTNDVPHDRPDMVELHRRAFDGLAAPFSEFLGTACADWVIVDVFHHWAAAAALEHKVPCAMMLLGSAHMIASIADRRLERAETESPAAAGQGRPAAAPTFEVARMKLIRTKGSSGMSLAERMSLTLSRSSLVVGRSCVEFEPETVPLLSTLRGKPITFLGLMPPLHEGRREDGEDATVRWLDAQPAKSVVYVALGSEVPLGVEKVHELALGLELAGTRFLWALRKPTGVSDADLLPAGFEERTRGRGVVATRWVPQMSILAHAAVGAFLTHCGWNSTIEGLMFGHPLIMLPIFGDQGPNARLIEAKNAGLQVARNDGDGSFDREGVAAAIRAVAVEEESSKVFQAKAKKLQEIVADMACHERYIDGFIQQLRSYKD |  | 25.2 ± 2.0 µM | 0.0483 s⁻¹ | 1920 M⁻¹ s⁻¹ | 20.9 ± 1.7 µM | 0.04 ± 0.00167 s⁻¹ | 1910 M⁻¹ s⁻¹ | 18.7 ± 1.7 µM | 0.065 ± 0.00167 s⁻¹ | 3480 M⁻¹ s⁻¹ |  |  | 
OsUGT91C1 (Oryza sativa Japonica Group; F208M/F379A) (protein, synthetic coding region in pET28b, His-tagged, E. coli BL21(DE3); HisTrap and gel filtration; tag removal not mentioned; monomer) MDSGYSSSYAAAAGMHVVICPWLAFGHLLPCLDLAQRLASRGHRVSFVSTPRNISRLPPVRPALAPLVAFVALPLPRVEGLPDGAESTNDVPHDRPDMVELHRRAFDGLAAPFSEFLGTACADWVIVDVFHHWAAAAALEHKVPCAMMLLGSAHMIASIADRRLERAETESPAAAGQGRPAAAPTFEVARMKLIRTKGSSGMSLAERMSLTLSRSSLVVGRSCVEFEPETVPLLSTLRGKPITFLGLMPPLHEGRREDGEDATVRWLDAQPAKSVVYVALGSEVPLGVEKVHELALGLELAGTRFLWALRKPTGVSDADLLPAGFEERTRGRGVVATRWVPQMSILAHAAVGAFLTHCGWNSTIEGLMFGHPLIMLPIAGDQGPNARLIEAKNAGLQVARNDGDGSFDREGVAAAIRAVAVEEESSKVFQAKAKKLQEIVADMACHERYIDGFIQQLRSYKD |  | 15.1 ± 2.6 µM | 0.0283 s⁻¹ | 1880 M⁻¹ s⁻¹ | 11.7 ± 1.0 µM | 0.0467 ± 0.00167 s⁻¹ | 3990 M⁻¹ s⁻¹ | 9.7 ± 1.9 µM | 0.0583 ± 0.00167 s⁻¹ | 6010 M⁻¹ s⁻¹ |  |  | 
OsUGT91C1 (Oryza sativa Japonica Group) (protein, synthetic coding region in pET28b, His-tagged, E. coli BL21(DE3); HisTrap and gel filtration; tag removal not mentioned; monomer) MDSGYSSSYAAAAGMHVVICPWLAFGHLLPCLDLAQRLASRGHRVSFVSTPRNISRLPPVRPALAPLVAFVALPLPRVEGLPDGAESTNDVPHDRPDMVELHRRAFDGLAAPFSEFLGTACADWVIVDVFHHWAAAAALEHKVPCAMMLLGSAHMIASIADRRLERAETESPAAAGQGRPAAAPTFEVARMKLIRTKGSSGMSLAERFSLTLSRSSLVVGRSCVEFEPETVPLLSTLRGKPITFLGLMPPLHEGRREDGEDATVRWLDAQPAKSVVYVALGSEVPLGVEKVHELALGLELAGTRFLWALRKPTGVSDADLLPAGFEERTRGRGVVATRWVPQMSILAHAAVGAFLTHCGWNSTIEGLMFGHPLIMLPIFGDQGPNARLIEAKNAGLQVARNDGDGSFDREGVAAAIRAVAVEEESSKVFQAKAKKLQEIVADMACHERYIDGFIQQLRSYKD |  | 45.7 ± 3.0 µM | 0.0203 s⁻¹ | 445 M⁻¹ s⁻¹ | 49.5 ± 5.3 µM | 0.0333 ± 0.00167 s⁻¹ | 673 M⁻¹ s⁻¹ | 24.9 ± 2.5 µM | 0.0483 ± 0.00167 s⁻¹ | 1940 M⁻¹ s⁻¹ | 71 ± 12 µM | 0.0105 ± 0.0005 s⁻¹ | 148 M⁻¹ s⁻¹
OsUGT91C1 (Oryza sativa Japonica Group; F379A) (protein, synthetic coding region in pET28b, His-tagged, E. coli BL21(DE3); HisTrap and gel filtration; tag removal not mentioned; monomer) MDSGYSSSYAAAAGMHVVICPWLAFGHLLPCLDLAQRLASRGHRVSFVSTPRNISRLPPVRPALAPLVAFVALPLPRVEGLPDGAESTNDVPHDRPDMVELHRRAFDGLAAPFSEFLGTACADWVIVDVFHHWAAAAALEHKVPCAMMLLGSAHMIASIADRRLERAETESPAAAGQGRPAAAPTFEVARMKLIRTKGSSGMSLAERFSLTLSRSSLVVGRSCVEFEPETVPLLSTLRGKPITFLGLMPPLHEGRREDGEDATVRWLDAQPAKSVVYVALGSEVPLGVEKVHELALGLELAGTRFLWALRKPTGVSDADLLPAGFEERTRGRGVVATRWVPQMSILAHAAVGAFLTHCGWNSTIEGLMFGHPLIMLPIAGDQGPNARLIEAKNAGLQVARNDGDGSFDREGVAAAIRAVAVEEESSKVFQAKAKKLQEIVADMACHERYIDGFIQQLRSYKD |  | 37.0 ± 2.5 µM | 0.0193 s⁻¹ | 523 M⁻¹ s⁻¹ | 16.5 ± 2.6 µM | 0.045 ± 0.00167 s⁻¹ | 2730 M⁻¹ s⁻¹ | 19.0 ± 2.6 µM | 0.0967 ± 0.00333 s⁻¹ | 5090 M⁻¹ s⁻¹ |  |  | 
